According to patent publication US20170037124A1 (Regeneron, published 2017):

T1: monkey ANGPTL8 expressed with C-terminal mouse IgG2a Fc tag (MfANGPTL8-mFc; SEQ ID NO: 341) (cynomolgus monkey)
T1 construct: also called cynomolgus monkey ANGPTL8
T1 chain: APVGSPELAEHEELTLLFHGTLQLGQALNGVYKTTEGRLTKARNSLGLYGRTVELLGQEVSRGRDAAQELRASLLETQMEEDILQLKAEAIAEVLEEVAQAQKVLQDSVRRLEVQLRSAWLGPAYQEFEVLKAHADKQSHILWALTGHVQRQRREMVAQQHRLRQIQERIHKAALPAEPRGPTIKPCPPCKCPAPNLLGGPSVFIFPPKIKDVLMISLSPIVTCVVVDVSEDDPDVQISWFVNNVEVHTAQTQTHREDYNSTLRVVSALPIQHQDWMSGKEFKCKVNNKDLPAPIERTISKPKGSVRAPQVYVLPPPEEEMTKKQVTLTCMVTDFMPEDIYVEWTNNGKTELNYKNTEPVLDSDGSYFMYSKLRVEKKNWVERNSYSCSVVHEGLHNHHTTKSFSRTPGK

T2: human ANGPTL8 expressed with C-terminal mouse IgG2a Fc tag (hANGPTL8-mFc; SEQ ID NO: 340) (human)
T2 construct: also called Angiopoietin-like protein 8
T2 chain: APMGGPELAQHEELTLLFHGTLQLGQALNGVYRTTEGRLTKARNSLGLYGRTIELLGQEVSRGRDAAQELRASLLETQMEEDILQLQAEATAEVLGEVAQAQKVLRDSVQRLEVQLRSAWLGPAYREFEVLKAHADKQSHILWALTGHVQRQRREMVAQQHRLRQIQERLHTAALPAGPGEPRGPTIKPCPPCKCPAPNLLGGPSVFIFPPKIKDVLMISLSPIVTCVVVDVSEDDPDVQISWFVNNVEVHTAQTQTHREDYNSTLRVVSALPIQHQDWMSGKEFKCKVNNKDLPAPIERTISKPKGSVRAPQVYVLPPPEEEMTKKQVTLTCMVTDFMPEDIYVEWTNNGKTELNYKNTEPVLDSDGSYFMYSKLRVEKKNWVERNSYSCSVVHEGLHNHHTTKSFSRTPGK

T3: peptide from the N-terminal coiled-coil region of human ANGPTL4 (hANGPTL4 peptide, SEQ ID NO: 339) (human)
T3 peptide: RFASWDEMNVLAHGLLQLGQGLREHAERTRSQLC

T4: human ANGPTL8 peptide (hANGPTL8 peptide, SEQ ID NO: 337) (human)
T4 construct: also called N-terminal region ANGPTL8 peptide
T4 peptide: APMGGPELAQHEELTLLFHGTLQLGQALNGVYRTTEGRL

T5: peptide from the N-terminal coiled-coil region of human ANGPTL3 (hANGPTL3 peptide, SEQ ID NO: 338) (human)
T5 construct: also called hANGPTL3 shift peptide
T5 peptide: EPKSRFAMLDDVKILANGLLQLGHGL

B1: H4H15319P (antibody, human IgG4, V domains shown)
VH: EVQLVESGGGVVRPGGSLRLSCAASGFTVDDYDMSWVRQTPGKGLEWISGINWNGGNTGYADSVKGRFIISRDSAKNSLFLQMNSLRAEDTALYHCWGAIGAFDIWGQGTMVTVSS
VL: DIVMTQSPLSSPVTLGQPASISCRSSQSLVHSDGGTYLSWLQQRPGQPPRLLIYKIFNRFSGVPDRFSGSGAGTDFTLRISRVEAEDVGVYYCMQTTQFPLTFGGGTKVEIK
notes: H4H prefix: human IgG4 Fc
B2: H4H15318P (antibody, human IgG4, V domains shown)
VH: QVQLVESGGGVVQPGRSLRLSCTASGFTFGNFGIHWVRQAPGKGLEWVAVISYDGTDKFYADPVKGRFIISRDNSMNILYLQMNSLRAEDTAVYYCAKDGEMELRGYYYYYGMDVWGQGTTVTVSS
VL: DIQMTQSPSSVSASVGDRVTITCRASQGINTWLAWYQQKPGTAPKLLIFAASSLESGVPSRFSGSGFGTDFTLTISSLQSEDLATYFCQQVHSPPYTFGQGTKLEIK
notes: H4H prefix: human IgG4 Fc
B3: H4H15345P (antibody, human IgG4, V domains shown)
VH: EVQLVESGGGLVQPGGSLRLSCAASGFTFSTYAMSWVRQAPGKGLEWVSVISGSFISTYYADSVKGRFTISRDNSKNTLYLQMTSLRAEDTAVYYCAKNSPFDYWGQGTLVTVSS
VL: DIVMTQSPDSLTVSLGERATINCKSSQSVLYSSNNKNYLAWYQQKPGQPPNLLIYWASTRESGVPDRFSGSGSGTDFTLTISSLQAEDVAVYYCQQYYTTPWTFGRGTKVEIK
notes: H4H prefix: human IgG4 Fc
B4: H4H15323P (antibody, human IgG4, V domains shown)
VH: EVQLVESGGGLVQPGGSLRLSCAASGFTFSSYAMTWVRQAPGKGLEWVSAISGSGGSTYYTDSVKGRFTLSRDNSKNTLYLQMNSLRAEDTAVYYCAKSDYSNTIYWYYGMDVWGQGTTVTVSS
VL: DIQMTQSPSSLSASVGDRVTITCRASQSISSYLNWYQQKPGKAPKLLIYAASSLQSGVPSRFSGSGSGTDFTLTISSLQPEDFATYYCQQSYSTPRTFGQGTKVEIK
notes: H4H prefix: human IgG4 Fc
B5: H4H15343P (antibody, human IgG4, V domains shown)
VH: QVQLVESGGGVVQPGRSLRLSCAASGFTFSSYGMHWVRQAPGKGLEWVAVISYAGSNKYYADSVKGRFTISRDNSKNTLYLQMNGLRAEDTAVYYCAKDPYGDYEGVLDYWGQGTLVTVSS
VL: DIQMTQSPSSLSASVGDRVTITCQASQDISNYLNWYQQKPGKAPKLLIYDASNLETGVPSRFSGSGSGTDFTFTISSLQPEDIATYYCQQYDHLPITFGQGTRLEIK
notes: H4H prefix: human IgG4 Fc
B6: H4H15346P (antibody, human IgG4, V domains shown)
VH: EVQLVESGGGLVQPGGSLRLSCAASGFTFSNYAMSWVRQAPGKGLEWVSTISDTGGSTYYADSVKGRFALSRDNSRNTLYLQMNSLRAEDTAVYYCAKEGPPDYWGQGTLVTVSS
VL: EIVLTQSPATLSLSPGERATLSCRTSQSVSIYLAWYQQKPGQAPRLLIYDASKRATGIPARFSGRGSGTDFTLTISSLEPEDFAVYYCQQRSNWPLTFGQGTRLEIK
notes: H4H prefix: human IgG4 Fc
B7: H4H15350P2 (antibody, human IgG4, V domains shown)
VH: EVQLVESGGGLVQPGGSLRLSCAASGFTFSSFRMTWVRQAPGKGLEWVANIKQDGSEKYYVDSVKGRFTISRDNAKNSLYLQMNSLRAEDTAVYYCARGGGIAAYWGQGTLVTVSS
VL: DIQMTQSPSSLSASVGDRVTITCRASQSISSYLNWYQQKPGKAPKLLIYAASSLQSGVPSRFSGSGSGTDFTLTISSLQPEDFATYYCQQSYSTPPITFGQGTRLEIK
notes: H4H prefix: human IgG4 Fc

The binders below were run against T6, anti-mFc (AMC) Octet biosensor, blank (assay: BLI Octet, blank AMC sensor, 100 nM mAb, 25C).
T6 construct: Sensor without captured protein, used as blank; also called Blank AMC Sensor
Procedure: (§1) Binding of ANGPTL8 antibodies to human and monkey ANGPTL8 proteins was investigated using Bio-layer Interferometry with an Octet HTX biosensor platform (ForteBio, A Division of Pall Life Sciences). All experiments were performed at 25° C. in 10 mM HEPES pH 7.4, 150 mM NaCl, 0.05% v/v Surfactant Tween-20, and 1 mg/ml BSA with the reaction multiwell plate agitated at 1000 rpm. Approximately 1.6 nm of human ANGPTL8 produced with a C-terminal mouse IgG2a Fc tag (hANGPTL8-mFc; SEQ ID NO: 340) or cynomolgus monkey ANGPTL8 produced with a C-terminal mouse IgG2a Fc tag (MfANGPTL8-mFc; SEQ ID NO: 341) was captured onto anti-mFc (AMC) Octet biosensors by submerging the sensors into wells containing 10 μg/mL of each protein for 4 minutes. Under the same conditions a negative control protein with the same mFc tag (hLDLR-mFc) was also coupled to the AMC sensor. All four sensors, […] and one blank, were then submerged into wells containing 100 nM of different ANGPTL8 monoclonal antibodies or an isotype control for 4 minutes.

mAb Binding Response (nm)	Binder
0	B1
0.01	B2
0.01	B3
0	B4
0.01	B5
-0.01	B6
-0.01	B7

Biological target: T1, monkey ANGPTL8 expressed with …
Experiment: BLI Octet, captured antigen, 100 nM mAb, 25C
Procedure: as §1

mAb Binding Response (nm)	Binder
0.26	B1
0.2	B2
0.31	B3
0.15	B4
0.2	B5
0.01	B6
0.2	B7

Biological target: T2, human ANGPTL8 expressed with C-terminal …
Experiment: BLI Octet, captured antigen, 100 nM mAb, 25C
Procedure: as §1

mAb Binding Response (nm)	Binder
0.22	B1
0.19	B2
0.25	B3
0.18	B4
0.17	B5
0.07	B6
0.17	B7

Each binder was assayed against T7, negative control protein with the same mFc tag (hLDLR-mFc) (human; mouse, UniProt P01130 22-788, limits assumed) (assay: BLI Octet, captured antigen, 100 nM mAb, 25C).
T7 construct: also called Irrelevant control; not shown: mouse IgG2a Fc tag (same mFc tag as hANGPTL8-mFc)
Procedure: as §1

T7 sequence (P01130 22-788 limits assumed): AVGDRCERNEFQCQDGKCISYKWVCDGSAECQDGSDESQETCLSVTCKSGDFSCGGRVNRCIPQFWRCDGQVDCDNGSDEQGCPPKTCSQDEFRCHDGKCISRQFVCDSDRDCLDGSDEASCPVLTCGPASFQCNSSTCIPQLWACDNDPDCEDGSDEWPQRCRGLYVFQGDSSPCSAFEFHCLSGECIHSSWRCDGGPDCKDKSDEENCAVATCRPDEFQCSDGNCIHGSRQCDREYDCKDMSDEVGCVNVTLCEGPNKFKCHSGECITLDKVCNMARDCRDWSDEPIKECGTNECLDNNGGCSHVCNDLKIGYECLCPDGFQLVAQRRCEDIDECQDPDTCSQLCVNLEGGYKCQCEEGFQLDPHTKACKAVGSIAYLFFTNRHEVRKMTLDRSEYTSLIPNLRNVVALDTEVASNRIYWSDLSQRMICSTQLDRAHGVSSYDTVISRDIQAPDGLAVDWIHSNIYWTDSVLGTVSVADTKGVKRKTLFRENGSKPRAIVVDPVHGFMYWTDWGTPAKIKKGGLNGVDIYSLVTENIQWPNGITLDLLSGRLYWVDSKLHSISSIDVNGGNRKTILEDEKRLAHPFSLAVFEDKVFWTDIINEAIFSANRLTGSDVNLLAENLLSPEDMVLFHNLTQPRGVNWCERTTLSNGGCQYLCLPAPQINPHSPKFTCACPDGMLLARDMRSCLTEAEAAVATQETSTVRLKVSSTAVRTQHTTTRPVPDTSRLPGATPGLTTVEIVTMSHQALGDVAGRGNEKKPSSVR

mAb Binding Response (nm)	Binder
-0.01	B1
0.01	B2
0	B3
0	B4
-0.01	B5
0	B6
0	B7

Biological target: T3, peptide from the N-terminal coiled-coil …
Experiment: SPR, captured mAb, 500 nM peptide, 25C
Procedure: (§2) The assay utilized a format where ANGPTL8 antibodies were captured on the sensor surface and peptides were injected over the antibody surface. Peptides from the N-terminal coiled-coil region of human ANGPTL3 (hANGPTL3 peptide, SEQ ID NO: 338) and human ANGPTL4 (hANGPTL4 peptide, SEQ ID NO: 339) were also included as controls. Also included was a control antibody (H4H268P from US2011/0159015A1) that binds to the ANGPTL4 peptide and a negative isotype control antibody. All binding studies were performed in 10 mM HEPES pH 7.4, 150 mM NaCl, 3 mM EDTA, and 0.05% v/v Surfactant Tween-20 (HBS-ET running buffer) at 25° C. The HCA sensor surface was derivatized via amine coupling to a monoclonal mouse anti-human Fc antibody (GE, # BR-1008-39), and to this surface was captured approximately 1000 RU of each ANGPTL8 antibody or control antibody. Peptide stock solutions were diluted in HBS-ET running buffer to 500 nM and injected over the antibody-captured surfaces for 4 minutes at a flow rate of 30 μL/minute followed by the dissociation of bound peptide in HBS-ET running buffer for 10 minutes.
(§3) Dissociative half-lives (t½) were calculated from kd as: […]

500 nM hAngPTL4 peptide Bound (RU)	Binder	binding result
0	B1	no binding (tested: <9 RU at 500 nM peptide)
0	B2	no binding (tested: <9 RU at 500 nM peptide)
0	B3	no binding (tested: <9 RU at 500 nM peptide)
0	B4	no binding (tested: <9 RU at 500 nM peptide)
0	B5	no binding (tested: <9 RU at 500 nM peptide)
0	B6	no binding (tested: <9 RU at 500 nM peptide)
0	B7	no binding (tested: <9 RU at 500 nM peptide)

Biological target: T4, human ANGPTL8 peptide (hANGPTL8 …)
Experiment: SPR, captured mAb, 500 nM peptide, 25C
Procedure: as §2, §3

500 nM hANGPTL8 peptide Bound (RU)	koff [s⁻¹]	t½ [min]	Binder	binding result
0			B1	no binding (tested: <9 RU at 500 nM peptide)
0			B2	no binding (tested: <9 RU at 500 nM peptide)
37	2.03e-05	570	B3	
0			B4	no binding (tested: <9 RU at 500 nM peptide)
0			B5	no binding (tested: <9 RU at 500 nM peptide)
0			B6	no binding (tested: <9 RU at 500 nM peptide)
0			B7	no binding (tested: <9 RU at 500 nM peptide)

Biological target: T5, peptide from the N-terminal coiled-coil …
Experiment: SPR, captured mAb, 500 nM peptide, 25C
Procedure: as §2, §3

500 nM hANGPTL3 peptide Bound (RU)	Binder	binding result
0	B1	no binding (tested: <9 RU at 500 nM peptide)
0	B2	no binding (tested: <9 RU at 500 nM peptide)
0	B3	no binding (tested: <9 RU at 500 nM peptide)
0	B4	no binding (tested: <9 RU at 500 nM peptide)
0	B5	no binding (tested: <9 RU at 500 nM peptide)
0	B6	no binding (tested: <9 RU at 500 nM peptide)
0	B7	no binding (tested: <9 RU at 500 nM peptide)
